# Measurements reported in US20160272683A1 (Novo Nordisk, published 2016).
# Numbered stars: 1 amine (or outer) side, 2 acyl side, 3 side chain; on linkers, the order of the positions; unused ones are H or OH. * marks the point of attachment. C20 diacid = O=C(O)CCCCCCCCCCCCCCCCCCC(=O)*; C18 diacid = O=C(O)CCCCCCCCCCCCCCCCC(=O)*; γGlu = O=C(O)[C@H](CCC(=O)[*:2])N[*:1]
# What was measured:
# [1] = target: T1, human amylin 3(a) receptor (human calcitonin receptor co-expressed with RAMP-3) on BHK570/CRE-luc cells (human, UniProt P30988 25-474; O60896 24-148); experiment: cell-based or functional assay
# T1 sequence (looked up) 1: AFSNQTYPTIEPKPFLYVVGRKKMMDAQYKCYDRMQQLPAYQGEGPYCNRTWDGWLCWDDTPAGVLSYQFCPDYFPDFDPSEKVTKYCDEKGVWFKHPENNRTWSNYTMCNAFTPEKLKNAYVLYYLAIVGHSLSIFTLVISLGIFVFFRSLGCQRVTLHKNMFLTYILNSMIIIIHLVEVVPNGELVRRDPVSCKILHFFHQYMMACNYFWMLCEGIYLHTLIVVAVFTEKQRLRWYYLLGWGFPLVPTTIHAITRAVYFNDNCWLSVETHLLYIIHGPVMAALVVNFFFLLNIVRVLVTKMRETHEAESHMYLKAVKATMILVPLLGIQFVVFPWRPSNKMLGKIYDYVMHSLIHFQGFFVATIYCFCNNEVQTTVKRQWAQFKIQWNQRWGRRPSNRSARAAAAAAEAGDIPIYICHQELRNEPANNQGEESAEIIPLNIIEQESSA
# T1 sequence (looked up) 2: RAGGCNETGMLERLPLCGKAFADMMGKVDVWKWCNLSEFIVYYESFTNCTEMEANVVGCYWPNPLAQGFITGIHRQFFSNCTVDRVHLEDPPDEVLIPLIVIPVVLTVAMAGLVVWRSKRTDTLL
# [2] = target: T2, human calcitonin receptor on BHK570/CRE-luc cells (human, UniProt P30988 25-474); experiment: cell-based or functional assay
# T2 sequence (looked up): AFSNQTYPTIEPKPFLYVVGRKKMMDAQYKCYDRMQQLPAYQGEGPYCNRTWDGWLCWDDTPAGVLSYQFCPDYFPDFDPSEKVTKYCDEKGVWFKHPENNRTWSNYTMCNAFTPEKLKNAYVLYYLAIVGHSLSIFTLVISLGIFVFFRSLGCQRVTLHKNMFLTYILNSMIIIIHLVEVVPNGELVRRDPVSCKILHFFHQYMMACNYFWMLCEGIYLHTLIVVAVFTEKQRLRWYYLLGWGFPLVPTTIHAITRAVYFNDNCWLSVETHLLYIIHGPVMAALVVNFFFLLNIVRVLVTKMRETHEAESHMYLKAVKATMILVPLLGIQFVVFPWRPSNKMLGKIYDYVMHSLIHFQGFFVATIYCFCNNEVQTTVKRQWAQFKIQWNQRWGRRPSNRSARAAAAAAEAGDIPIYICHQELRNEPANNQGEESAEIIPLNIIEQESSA
"hAmylin-R funct. EC50 (pM), tested with HSA [1] [pM]","hCTR funct. EC50 (pM), tested with HSA [2] [pM]",Binder
210,50,"{C20 diacid-γGlu}-ASELSTAALGRLSAELHELATYPRTETGSGSPG-OH (SMILES CC(C)C[C@H](NC(=O)[C@H](C)NC(=O)[C@H](C)NC(=O)[C@@H](NC(=O)[C@H](CO)NC(=O)[C@H](CC(C)C)NC(=O)[C@H](CCC(=O)O)NC(=O)[C@H](CO)NC(=O)[C@H](C)NC(=O)CC[C@H](NC(=O)CCCCCCCCCCCCCCCCCCC(=O)O)C(=O)O)[C@@H](C)O)C(=O)NCC(=O)N[C@@H](CCCNC(=N)N)C(=O)N[C@@H](CC(C)C)C(=O)N[C@@H](CO)C(=O)N[C@@H](C)C(=O)N[C@@H](CCC(=O)O)C(=O)N[C@@H](CC(C)C)C(=O)N[C@@H](Cc1c[nH]cn1)C(=O)N[C@@H](CCC(=O)O)C(=O)N[C@@H](CC(C)C)C(=O)N[C@@H](C)C(=O)N[C@H](C(=O)N[C@@H](Cc1ccc(O)cc1)C(=O)N1CCC[C@H]1C(=O)N[C@@H](CCCNC(=N)N)C(=O)N[C@H](C(=O)N[C@@H](CCC(=O)O)C(=O)N[C@H](C(=O)NCC(=O)N[C@@H](CO)C(=O)NCC(=O)N[C@@H](CO)C(=O)N1CCC[C@H]1C(=O)NCC(=O)O)[C@@H](C)O)[C@@H](C)O)[C@@H](C)O) [[N-terminal(C20 diacid-gGlu), des1, 23Y, 30S, 31G, 34G, C-terminal(-)]mimylin]"
209,53,"{C20 diacid-γGlu}-ASELSTAALGRLSAELHELATYPRTETGSGSPK-OH (SMILES CC(C)C[C@H](NC(=O)[C@H](C)NC(=O)[C@H](C)NC(=O)[C@@H](NC(=O)[C@H](CO)NC(=O)[C@H](CC(C)C)NC(=O)[C@H](CCC(=O)O)NC(=O)[C@H](CO)NC(=O)[C@H](C)NC(=O)CC[C@H](NC(=O)CCCCCCCCCCCCCCCCCCC(=O)O)C(=O)O)[C@@H](C)O)C(=O)NCC(=O)N[C@@H](CCCNC(=N)N)C(=O)N[C@@H](CC(C)C)C(=O)N[C@@H](CO)C(=O)N[C@@H](C)C(=O)N[C@@H](CCC(=O)O)C(=O)N[C@@H](CC(C)C)C(=O)N[C@@H](Cc1c[nH]cn1)C(=O)N[C@@H](CCC(=O)O)C(=O)N[C@@H](CC(C)C)C(=O)N[C@@H](C)C(=O)N[C@H](C(=O)N[C@@H](Cc1ccc(O)cc1)C(=O)N1CCC[C@H]1C(=O)N[C@@H](CCCNC(=N)N)C(=O)N[C@H](C(=O)N[C@@H](CCC(=O)O)C(=O)N[C@H](C(=O)NCC(=O)N[C@@H](CO)C(=O)NCC(=O)N[C@@H](CO)C(=O)N1CCC[C@H]1C(=O)N[C@@H](CCCCN)C(=O)O)[C@@H](C)O)[C@@H](C)O)[C@@H](C)O) [[N-terminal(C20 diacid-gGlu), des1, 23Y, 30S, 31G, 34K, C-terminal(-)]mimylin]"
81,42,"{C20 diacid-γGlu}-ASELSTASLGRLSAELHELATYPRTETGSGSY-NH2 (SMILES CC(C)C[C@H](NC(=O)[C@H](CO)NC(=O)[C@H](C)NC(=O)[C@@H](NC(=O)[C@H](CO)NC(=O)[C@H](CC(C)C)NC(=O)[C@H](CCC(=O)O)NC(=O)[C@H](CO)NC(=O)[C@H](C)NC(=O)CC[C@H](NC(=O)CCCCCCCCCCCCCCCCCCC(=O)O)C(=O)O)[C@@H](C)O)C(=O)NCC(=O)N[C@@H](CCCNC(=N)N)C(=O)N[C@@H](CC(C)C)C(=O)N[C@@H](CO)C(=O)N[C@@H](C)C(=O)N[C@@H](CCC(=O)O)C(=O)N[C@@H](CC(C)C)C(=O)N[C@@H](Cc1c[nH]cn1)C(=O)N[C@@H](CCC(=O)O)C(=O)N[C@@H](CC(C)C)C(=O)N[C@@H](C)C(=O)N[C@H](C(=O)N[C@@H](Cc1ccc(O)cc1)C(=O)N1CCC[C@H]1C(=O)N[C@@H](CCCNC(=N)N)C(=O)N[C@H](C(=O)N[C@@H](CCC(=O)O)C(=O)N[C@H](C(=O)NCC(=O)N[C@@H](CO)C(=O)NCC(=O)N[C@@H](CO)C(=O)N[C@@H](Cc1ccc(O)cc1)C(N)=O)[C@@H](C)O)[C@@H](C)O)[C@@H](C)O) [[N-terminal(C20 diacid-gGlu), des1, 9S, 23Y, 30S, 31G, 33Y]mimylin]"
150,105,"{C20 diacid-γGlu}-ASELSTATLGRLSAELHELSTYPRTETGSGSP-NH2 (SMILES CC(C)C[C@H](NC(=O)[C@H](CCCNC(=N)N)NC(=O)CNC(=O)[C@H](CC(C)C)NC(=O)[C@@H](NC(=O)[C@H](C)NC(=O)[C@@H](NC(=O)[C@H](CO)NC(=O)[C@H](CC(C)C)NC(=O)[C@H](CCC(=O)O)NC(=O)[C@H](CO)NC(=O)[C@H](C)NC(=O)CC[C@H](NC(=O)CCCCCCCCCCCCCCCCCCC(=O)O)C(=O)O)[C@@H](C)O)[C@@H](C)O)C(=O)N[C@@H](CO)C(=O)N[C@@H](C)C(=O)N[C@@H](CCC(=O)O)C(=O)N[C@@H](CC(C)C)C(=O)N[C@@H](Cc1c[nH]cn1)C(=O)N[C@@H](CCC(=O)O)C(=O)N[C@@H](CC(C)C)C(=O)N[C@@H](CO)C(=O)N[C@H](C(=O)N[C@@H](Cc1ccc(O)cc1)C(=O)N1CCC[C@H]1C(=O)N[C@@H](CCCNC(=N)N)C(=O)N[C@H](C(=O)N[C@@H](CCC(=O)O)C(=O)N[C@H](C(=O)NCC(=O)N[C@@H](CO)C(=O)NCC(=O)N[C@@H](CO)C(=O)N1CCC[C@H]1C(N)=O)[C@@H](C)O)[C@@H](C)O)[C@@H](C)O) [[N-terminal(C20 diacid-gGlu), des1, 9T, 21S, 23Y, 30S, 31G]mimylin]"
729,109,"{C20 diacid-γGlu}-ASELSTAALGHLSAELHELATLPHTETGTGTP-NH2 (SMILES CC(C)C[C@H](NC(=O)[C@H](C)NC(=O)[C@H](C)NC(=O)[C@@H](NC(=O)[C@H](CO)NC(=O)[C@H](CC(C)C)NC(=O)[C@H](CCC(=O)O)NC(=O)[C@H](CO)NC(=O)[C@H](C)NC(=O)CC[C@H](NC(=O)CCCCCCCCCCCCCCCCCCC(=O)O)C(=O)O)[C@@H](C)O)C(=O)NCC(=O)N[C@@H](Cc1c[nH]cn1)C(=O)N[C@@H](CC(C)C)C(=O)N[C@@H](CO)C(=O)N[C@@H](C)C(=O)N[C@@H](CCC(=O)O)C(=O)N[C@@H](CC(C)C)C(=O)N[C@@H](Cc1c[nH]cn1)C(=O)N[C@@H](CCC(=O)O)C(=O)N[C@@H](CC(C)C)C(=O)N[C@@H](C)C(=O)N[C@H](C(=O)N[C@@H](CC(C)C)C(=O)N1CCC[C@H]1C(=O)N[C@@H](Cc1c[nH]cn1)C(=O)N[C@H](C(=O)N[C@@H](CCC(=O)O)C(=O)N[C@H](C(=O)NCC(=O)N[C@H](C(=O)NCC(=O)N[C@H](C(=O)N1CCC[C@H]1C(N)=O)[C@@H](C)O)[C@@H](C)O)[C@@H](C)O)[C@@H](C)O)[C@@H](C)O) [[N-terminal(C20 diacid-gGlu), des1, 12H, 25H, 30T, 31G, 32T]mimylin]"
30,75,"{C18 diacid-γGlu}-ASELTTAVLGRLSAELHELATLPRTETGSGTP-NH2 [[N-terminal(C18 diacid-gGlu), des1, 6T, 9V, 30S, 31G, 32T]mimylin]"
52,13,"{C18 diacid-γGlu}-ASELTTAVLGRLSAELHELATLPRTETGTGTP-NH2 [[N-terminal(C18 diacid-gGlu), des1, 6T, 9V, 30T, 31G, 32T]mimylin]"
38,11,"{C18 diacid-γGlu}-ASEVSTAVVGRLSAELHELATLPRTETGSGSP-NH2 (SMILES CC(C)C[C@H](NC(=O)[C@H](CCC(=O)O)NC(=O)[C@H](Cc1c[nH]cn1)NC(=O)[C@H](CC(C)C)NC(=O)[C@H](CCC(=O)O)NC(=O)[C@H](C)NC(=O)[C@H](CO)NC(=O)[C@H](CC(C)C)NC(=O)[C@H](CCCNC(=N)N)NC(=O)CNC(=O)[C@@H](NC(=O)[C@@H](NC(=O)[C@H](C)NC(=O)[C@@H](NC(=O)[C@H](CO)NC(=O)[C@@H](NC(=O)[C@H](CCC(=O)O)NC(=O)[C@H](CO)NC(=O)[C@H](C)NC(=O)CC[C@H](NC(=O)CCCCCCCCCCCCCCCCC(=O)O)C(=O)O)C(C)C)[C@@H](C)O)C(C)C)C(C)C)C(=O)N[C@@H](C)C(=O)N[C@H](C(=O)N[C@@H](CC(C)C)C(=O)N1CCC[C@H]1C(=O)N[C@@H](CCCNC(=N)N)C(=O)N[C@H](C(=O)N[C@@H](CCC(=O)O)C(=O)N[C@H](C(=O)NCC(=O)N[C@@H](CO)C(=O)NCC(=O)N[C@@H](CO)C(=O)N1CCC[C@H]1C(N)=O)[C@@H](C)O)[C@@H](C)O)[C@@H](C)O) [[N-terminal(C18 diacid-gGlu), des1, 5V, 9V, 10V, 30S, 31G]mimylin]"
64,48,"{C20 diacid-γGlu}-ASELSTAALGRLSAELHELSTYPRTETGSGSY-NH2 (SMILES CC(C)C[C@H](NC(=O)[C@H](C)NC(=O)[C@H](C)NC(=O)[C@@H](NC(=O)[C@H](CO)NC(=O)[C@H](CC(C)C)NC(=O)[C@H](CCC(=O)O)NC(=O)[C@H](CO)NC(=O)[C@H](C)NC(=O)CC[C@H](NC(=O)CCCCCCCCCCCCCCCCCCC(=O)O)C(=O)O)[C@@H](C)O)C(=O)NCC(=O)N[C@@H](CCCNC(=N)N)C(=O)N[C@@H](CC(C)C)C(=O)N[C@@H](CO)C(=O)N[C@@H](C)C(=O)N[C@@H](CCC(=O)O)C(=O)N[C@@H](CC(C)C)C(=O)N[C@@H](Cc1c[nH]cn1)C(=O)N[C@@H](CCC(=O)O)C(=O)N[C@@H](CC(C)C)C(=O)N[C@@H](CO)C(=O)N[C@H](C(=O)N[C@@H](Cc1ccc(O)cc1)C(=O)N1CCC[C@H]1C(=O)N[C@@H](CCCNC(=N)N)C(=O)N[C@H](C(=O)N[C@@H](CCC(=O)O)C(=O)N[C@H](C(=O)NCC(=O)N[C@@H](CO)C(=O)NCC(=O)N[C@@H](CO)C(=O)N[C@@H](Cc1ccc(O)cc1)C(N)=O)[C@@H](C)O)[C@@H](C)O)[C@@H](C)O) [[N-terminal(C20 diacid-gGlu), des1, 21S, 23Y, 30S, 31G, 33Y]mimylin]"
